Test results: the supplement of paper PMC9112550, “Optimization of the antimicrobial peptide Bac7 by deep mutational scanning” (BMC Biology, 2022)

Test system: Escherichia coli TOP10
Assay: shrunken log2 fold change of peptide-encoding DNA abundance (4.5 h post-induction vs induction); higher = less antimicrobial activity (less host growth inhibition)
Conditions: time post-induction: 4.5 h; library: site-saturation at positions 5, 18, 19, 20
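Also: peptides expressed intracellularly from a pBAD plasmid library in pooled LB shake-flask culture, induced with 0.3% L-arabinose, DNA abundance read by NGS, three biological replicates, DESeq2 with apeglm shrinkage.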

Sequence | shrunken log2 fold change
RRIRPRPPRLPRPRPRPHATPRP | 0.323
RRIRGRPPRLPRPRPRPQCRPRP | 0.0701
RRIRHRPPRLPRPRPRPEFDPRP | 0.12
RRIRQRPPRLPRPRPRPWWPPRP | -0.119
RRIRCRPPRLPRPRPRPYDKPRP | -0.985
RRIRKRPPRLPRPRPRPTVCPRP | 0.765
RRIRHRPPRLPRPRPRPHDRPRP | -0.218
RRIRIRPPRLPRPRPRPMAPPRP | -0.0415
RRIRMRPPRLPRPRPRPSYSPRP | -0.157
RRIRDRPPRLPRPRPRPRDMPRP | -0.0954
RRIRGRPPRLPRPRPRPSIFPRP | 0.415
RRIRSRPPRLPRPRPRPYYTPRP | -0.576
RRIRERPPRLPRPRPRPTCYPRP | -0.673
RRIRCRPPRLPRPRPRPGAPPRP | 0.734
RRIRWRPPRLPRPRPRPKGDPRP | 0.0616
RRIRERPPRLPRPRPRPGGWPRP | 0.492
RRIRWRPPRLPRPRPRPPNTPRP | 0.142
RRIRYRPPRLPRPRPRPARYPRP | -0.000578
RRIRGRPPRLPRPRPRPCVVPRP | 0.293
RRIRIRPPRLPRPRPRPSAPPRP | -0.00138
RRIRNRPPRLPRPRPRPLHNPRP | -0.503
RRIRFRPPRLPRPRPRPIHAPRP | -0.0507
RRIRDRPPRLPRPRPRPNAQPRP | 0.325
RRIRIRPPRLPRPRPRPCAHPRP | 0.0482
RRIRHRPPRLPRPRPRPSGCPRP | -0.162

Sequence | shrunken log2 fold change
RRIRGRPPRLPRPRPRPGVNPRP | 0.075
RRIRRRPPRLPRPRPRPKGQPRP | 0.176
RRIRERPPRLPRPRPRPKTKPRP | -0.00738
RRIRMRPPRLPRPRPRPLDDPRP | 3.25
RRIRHRPPRLPRPRPRPMPFPRP | 0.0462
RRIRGRPPRLPRPRPRPCEDPRP | 0.0133
RRIRPRPPRLPRPRPRPDFYPRP | -0.156
RRIRFRPPRLPRPRPRPQNNPRP | -0.656
RRIRMRPPRLPRPRPRPNSVPRP | -0.0202
RRIRERPPRLPRPRPRPFLFPRP | -0.286
RRIRNRPPRLPRPRPRPSFHPRP | -0.41
RRIRSRPPRLPRPRPRPGPHPRP | -0.109
RRIRERPPRLPRPRPRPWDAPRP | -0.379
RRIRDRPPRLPRPRPRPGMWPRP | 0.634
RRIRQRPPRLPRPRPRPRRQPRP | 0.197
RRIRQRPPRLPRPRPRPGQTPRP | 0.00514
RRIRDRPPRLPRPRPRPNPYPRP | -0.558
RRIRPRPPRLPRPRPRPLAMPRP | 0.193
RRIRTRPPRLPRPRPRPMFLPRP | -0.593
RRIRMRPPRLPRPRPRPHSVPRP | 0.0764
RRIRRRPPRLPRPRPRPWICPRP | -0.0987
RRIRVRPPRLPRPRPRPESSPRP | 0.00518
RRIRNRPPRLPRPRPRPMPCPRP | 0.05
RRIRNRPPRLPRPRPRPIYSPRP | -0.0185
RRIRVRPPRLPRPRPRPLSNPRP | -0.413

Sequence | shrunken log2 fold change
RRIRERPPRLPRPRPRPDITPRP | 3.39
RRIRARPPRLPRPRPRPHVDPRP | 0.142
RRIRQRPPRLPRPRPRPEPGPRP | 0.485
RRIRLRPPRLPRPRPRPRQHPRP | -0.0111
RRIRTRPPRLPRPRPRPENQPRP | 0.0593
RRIRLRPPRLPRPRPRPPLVPRP | 0.402
RRIRNRPPRLPRPRPRPHTSPRP | -0.268
RRIRLRPPRLPRPRPRPWTIPRP | -0.0385
RRIRARPPRLPRPRPRPQEPPRP | 0.744
RRIRARPPRLPRPRPRPIVIPRP | -0.194
RRIRHRPPRLPRPRPRPYELPRP | -0.116
RRIRMRPPRLPRPRPRPFPQPRP | 0.103
RRIRARPPRLPRPRPRPSCTPRP | 0.44
RRIRIRPPRLPRPRPRPYVRPRP | -0.199
RRIRPRPPRLPRPRPRPCWNPRP | -0.0418
RRIRHRPPRLPRPRPRPFFWPRP | 0.093
RRIRIRPPRLPRPRPRPTCIPRP | -0.193
RRIRSRPPRLPRPRPRPMANPRP | -0.397
RRIRDRPPRLPRPRPRPDYPPRP | 0.00388
RRIRKRPPRLPRPRPRPCSEPRP | 0.296
RRIRWRPPRLPRPRPRPHWPPRP | 0.248
RRIRARPPRLPRPRPRPWNYPRP | -0.625
RRIRYRPPRLPRPRPRPSFRPRP | -0.59
RRIRGRPPRLPRPRPRPQQDPRP | 0.357
RRIRSRPPRLPRPRPRPCIQPRP | -0.175

Sequence | shrunken log2 fold change
RRIRARPPRLPRPRPRPLNSPRP | 0.0404
RRIRNRPPRLPRPRPRPDNWPRP | -0.532
RRIRSRPPRLPRPRPRPICAPRP | 0.47
RRIRRRPPRLPRPRPRPRWLPRP | 0.388
RRIRFRPPRLPRPRPRPNPWPRP | -0.0447
RRIRYRPPRLPRPRPRPENPPRP | -0.382
RRIRARPPRLPRPRPRPFCAPRP | 0.394
RRIRKRPPRLPRPRPRPYPDPRP | -0.175
RRIRIRPPRLPRPRPRPPSFPRP | -0.213
RRIRARPPRLPRPRPRPIGMPRP | 0.0267
RRIRLRPPRLPRPRPRPWFFPRP | -0.155
RRIRIRPPRLPRPRPRPVWTPRP | -0.273
RRIRVRPPRLPRPRPRPCKTPRP | -0.00208
RRIRWRPPRLPRPRPRPVEIPRP | -0.206
RRIRARPPRLPRPRPRPQTWPRP | 0.279
RRIRWRPPRLPRPRPRPYPKPRP | 0.11
RRIRTRPPRLPRPRPRPQRHPRP | 0.19
RRIRYRPPRLPRPRPRPQIFPRP | 0.0295
RRIRIRPPRLPRPRPRPHTIPRP | -0.572
RRIRGRPPRLPRPRPRPWTCPRP | -0.0593
RRIRNRPPRLPRPRPRPNTTPRP | -0.209
RRIRSRPPRLPRPRPRPWMEPRP | -0.384
RRIRPRPPRLPRPRPRPCPEPRP | -0.123
RRIRMRPPRLPRPRPRPFAGPRP | -0.0745
RRIRRRPPRLPRPRPRPCIGPRP | -0.328

Sequence | shrunken log2 fold change
RRIRERPPRLPRPRPRPLNKPRP | -0.47
RRIRLRPPRLPRPRPRPECHPRP | 0.0679
RRIRDRPPRLPRPRPRPVCEPRP | 1.18
RRIRIRPPRLPRPRPRPLKWPRP | -0.535
RRIRSRPPRLPRPRPRPRDQPRP | -0.0856
RRIRTRPPRLPRPRPRPCRAPRP | -0.0539
RRIRGRPPRLPRPRPRPFGNPRP | 0.0288
RRIRGRPPRLPRPRPRPGNTPRP | 0.171
RRIRCRPPRLPRPRPRPKEVPRP | -0.289
RRIRVRPPRLPRPRPRPWRQPRP | 0.2
RRIRERPPRLPRPRPRPMGEPRP | -0.00192
RRIRRRPPRLPRPRPRPWMHPRP | 0.103
RRIRIRPPRLPRPRPRPESYPRP | 0.0064
RRIRSRPPRLPRPRPRPLAMPRP | 0.087
RRIRIRPPRLPRPRPRPMIEPRP | -0.0216
RRIRDRPPRLPRPRPRPYKCPRP | -0.00925
RRIRDRPPRLPRPRPRPRVPPRP | 0.523
RRIRDRPPRLPRPRPRPFSYPRP | -0.22
RRIRSRPPRLPRPRPRPNHFPRP | -0.21
RRIRRRPPRLPRPRPRPSWHPRP | -0.0466
RRIRHRPPRLPRPRPRPHEKPRP | -0.00373
RRIRIRPPRLPRPRPRPIGAPRP | -0.0926
RRIRQRPPRLPRPRPRPCDAPRP | -0.027
RRIRHRPPRLPRPRPRPLMEPRP | -0.348
RRIRLRPPRLPRPRPRPRHWPRP | 0.679
